# Source: the nanobody polyreactivity screen of Harvey et al. (2022)
# Assay: yeast display, Sf9 membrane polyspecificity reagent, FACS + sequencing; frameworks hold sequencing errors
# In short: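 Nanobodies came from a synthetic yeast display library in Saccharomyces cerevisiae BJ5465, induced with galactose for 36–48 hours and stained for 1 hour at 4 °C with 10% biotinylated, detergent-solubilized Sf9 membrane reagent. Cells were enriched on streptavidin microbeads and then FACS-sorted, with low and high (top ~1%) gates set on anti-HA fluorescence for expression and streptavidin fluorescence for reagent binding. Each polyreactivity label reflects the gate a clone came from. Genes were amplified by colony PCR, sequenced by MiSeq 2 × 250 and filtered by CDR length.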
row,Sequence,polyreactivity (PSR sort gate)
1,QVQLVESGGGLVQAGGSLRLSCAASGIIFEYYDRGWYRQAPGKERELVAAIDSGGSTYYADSVKGRFTISRDNAKNTVYLQMNSLKPEDTAVYYCAAETVRYDWGESPAALFDYWGQGTQVTVSS,low polyreactivity
2,QVQLVESGGGLVQAGGSLRLSCAASGSTFRYNAMGWYRQAPGKERELVAAISSSGGSTRYADSVKGRFTISRDNANNTVYLQMNSLKPEDTAVYYCAVRFYDWRYYYWGQGTQVTVSS,high polyreactivity
3,QVQLVESGGGLVQAGGSLRLSCAASGRIFTYNAMGWYRQAPGKERELVAAISTRGGTTRYADSVKGRFTISRDNAKNTVYLQMNSLKPEDTAVYYCNAVSRGSRWDGLVRLDYWGQGTQVTVSS,high polyreactivity
4,QVQLVESGGGLVQAGGSHRLSCAASGRTFGGNVMGWYRPAHWKERELVAAISSTGDRTYYADSVKGRFTISRDNAKNTVYLQMYSLKPEDTAVYYCAARPAYRSSYYWGQGTQVTVSS,high polyreactivity
5,QVQLVESCGGLVQAGGSLRLSCAASGSIFGWYAMGWYRQAPGKESELVAAISTSTGSTYYADSVKGRFTISRDNAKNTVYLQMNSLKPEDTAVYYCAVVVAGVFLWGVERYDYWGQGTQVTVSS,low polyreactivity
6,QVQLVESGGGLVQAAGSLRLICAASGSTFPANAMGWYRQEPGKERELVASITKSGGDTYYADSVKGRFTISRDNAKNSVYVQMNSLKPEDTAVYDCAKDYVNQYGVYKVWANNYNYWGQGTQVTVSS,low polyreactivity
7,QVQLVESGGGLVQAGGSLRLSCAASGRTFRSYAMGWYRQAPGKERELVAGITTSGGSTYYADSVKGRFTISRDNAKNTVYLQMNSLKPEDTAVYYCNARSWYSFHPHDYWGQGTQVTVSS,high polyreactivity
8,QVQLVESGGGLVQAGGSLRLSCAASGSIFEWYAMGWYRQAPGKERELVADITNNGGSTYYADSVKGRFTISRDNAKNTVYLQMNSLKPEDTAVYYCAADYFDQVPDYYYASEYGYWGQGTQVTVSS,low polyreactivity
9,QVQLVESGGGLVQAGGSLRLSCAASGGIYGNYAMGWYRQAPGKERELVADITTGGSTYYADSVKGRFTISRDNAKNTVYLQMNSLKPEDTAVYYCNARSLFHRFSSYKYDYWGQGTQVTVST,high polyreactivity
10,QVQLVESGGGLVQAGGSLRLRCAASGRTVVYYAMGWSRPAAGKETEFVATITSSGGSTYYADSVKGRFTISRDNAKNSVYLQMNSLKPEDTAVNYCAASPNIGYSKVSKYYYRGQGTQVTVSS,high polyreactivity
11,QVQLVESGGGLVQAGGSLRLSCAASGSIFVYYVMGWYRQAPGKDRELVAAINSDGDGTYYADSVKGRFTISRDNAKNTVYLQMNSLKPEDTAVYYCNALNPKSYDYWGQGTQVTVSS,low polyreactivity
12,QVQLVESGGGLVQAGGSLRLSCAASARIFTAYAMGWYRQAPGKERELVASISTSGGRTYYADSVKGRFTISRDNAKNTVYLQINSLKPEDTAVYYFAADFESYSRYYDGYDYWGQGTQVTVSS,high polyreactivity
13,QVQLVESGGGLVQAGGSLRLSCAASGITFLDYAMGWYRQAPGQERELVAAISKRGGSTYYADSVKGRFTISRDKAKNTVYLQMNSLKPEDTAVYYCAAYYHSVRNDYFYYWGQGTQVTVSS,high polyreactivity
14,QVQLVESGGGLVNAGGSLRLSCAASGSIFKYNVMGWYRQAPGKEREMVAAITSRGTSTYYADSVKGRFTISRDNAKNTVYLQMNSLKPEDTAVYYCAADDNYYTFGYWGQGTQVTVSS,high polyreactivity
15,QVQLVESGGGLVQAGGSLRLSCAASGYTFSNNAMGWYRQAPGKERELVAAISRSTGSTYYADSVKGRFTISRDYAKNTVYLQMNSLKPEDTAVYYCAVYRHGYGYNYWGQGTQVTVSS,high polyreactivity
16,QVQLVESGGGLVQAGGSIRLSCAASGRTFYLYAMGWYRQAPGKERELVAVISRRGGRTYYADSVKGRFTISRDNSKNTVYLQMNSLKPEDTAVYYCAVYSFGMGYWGQGTQVTVSS,high polyreactivity
17,QVQLVESGGGLVQAVGSLRLSCAASGLTFYPNAMGWYRQAPGKERQFVDSISISGRTYYADSVKGRFTISRDNAKNTVYLQMNSLKPEDTAVYYCAARYVRSGLYRKYDYWGQGTQVTVSS,high polyreactivity
18,QVQLVESGGGLVQAGGSLRLSCAASGRIFWYYAMGWYRQAPGKERELVAAITKSGGSTYYADSVKGRFTISRDYAKNTVYLQMNSLKPEDTAVYYCAAPTWTRSSFDYWGQGTQVTVSS,high polyreactivity
19,QVQLVESGGGLVQAGGSLRLSCAASGFIFYSNDMGWYRQAPGKERELVAAITSSGGSTYYADSVKGRFTISRDNAKNTVYLQMNSLKPEDTAVYYCNADCTTFGLYSWGQGTQVTVSS,low polyreactivity
20,QVQLQERGGRLVQAGGSLRLSCAASGSIFTQATMGCDRQAPGKERELVAAINFGSSTYYADSVKGRFTISRDNAKSTVYLQMNSLKPEDTAVYYCAVRALWYDFHDYWGQGTQVTVSS,high polyreactivity

row,Sequence,polyreactivity (PSR sort gate)
1,QVQLLESGGGLVQAGGSLRLSCAASGSIFYPYALGWYRQAPGKERELVAGISRSGASTYYADSVKGRFTISRDKAKNTVYLQMNSLKPEDTAVYYCAADDWTRNYWGQGTQVTVSS,low polyreactivity
2,HVQLVESGGGLVQAGVSLRLSCAASGSIFSPYAMGGFRPAPGKERELLAAISSSGGSTYYADSVKRRFTISRDNAKNTVYLQMNSLKPEDTAVYYCAADSATGIFDRLNYWGQGTQVTVSS,high polyreactivity
3,QVQLVESGGGLVQAGGSLRLSCAASGFNFAIYAMGWYRQAPGKERELVAAINSDGSTYYADSLKGLFTISRDNAKNSDYLQINSLKPEDTAVYYCNAETAGHDMDYWGQGTQVTVSS,low polyreactivity
4,QVQLVESGGGLVQAGGSLRLSCAASGRIFWDNAMGWYRQAPGKERELVAAISDSVVITYYADSVKGRFTISRDNAKNTVYLQMNSLKPEDTAVYYCAADKRGTVYLSSFWMDYWGQGTQVTVSW,low polyreactivity
5,QVQLVESGGGLVQAGGSLRLSCAASGSTFGWYAMGWYRQAPGKEREFVAAIRGGGSSTYYADSVKGRFTISRDNAKNTVYFQMNSLKPEDTAVYYCAAVTSQLYGNRYYYWGQGTQVTVSS,high polyreactivity
6,QVQLVESGGGLVQAGGSLRLSCAASGRIFAWYAMGWYRQAPGKEREFVAASTYRAARTYYADSVKGRFTISRDNAKNTVYLQMNSLNPEDTAVYYCNRQFGRRVYISHPGPGYWGQGTQVTVSS,high polyreactivity
7,QVQLVESGGGLVQAGGSLRLSCAASGITFYGNAMGRYRQAPGKEREVVAAISSSGGTTYYADSVKGRFTISRDNAKNTVYLQMNSLKPEDTAVYFCNALHPVVYYGTYFNLRRYDYWGQGTQVTVSS,low polyreactivity
8,QVQLVESGGGLVQAGGSLRLSCAASGSTFAYYAMGWYRQAPGKEREFVAAISTRGGSTYYADSVKGRFTISRDNAKNTLYLQMNSLKPEDTAVYYCAAGYFNYSWRIRFDYWGQGTQVTVSS,high polyreactivity
9,QVQLVESGGGLVQAGGSLRLSCAASGSTFGLYAMGWYRQAPGKERELVAAITRGGVTDFADCVKGRFTFSRDNAKYTVYLQMNSLKPEDTAVYYCAAQYKRYHGLFGFWGQGTQVTVSS,high polyreactivity
10,QDQLVESGGGLVQAGGSLRLSCAASGSIFPDYTMGWYRQAPGKERELVPGNTWNGGGTYYADSVKGRITISRDNAKNTVYLQMYSLKPEDTAVYYCAAVWSGSRSTGAWGPYNYWGQGTQVTVSS,low polyreactivity
11,QVQLVETGGGLVQAGGSLRLSCAASGSTFWYNAMGWYRQAPGKESELVAAISRSGATTYYADSVKGRFTISRDNAKNTVYLQMNSLKPEDTAVYYCNKVRQYRYRGYTFDYWGQGTQVSVSS,low polyreactivity
12,QVQLVESGGGLVQAGGSLRLSCAASGRTFGRYSMGWYRQAPGKERELVAAISYSTDSTYYADSVKGRFTISRDNAKNTVYLQMNSLKPEDTAVYYCAALGYHRYRNYDYWGQGTQVTVSS,low polyreactivity
13,QVQLVESGGGLVQAGGSLRLSCAASGRIFRGYAMGWYRQAPGKERELVAAISRRGGSTSYADSVKGRFTISRDNAKNTVYLQMNSLKPEDTAVYYCAVDYSKNGDDYWGQGTQVTVSS,high polyreactivity
14,QVQLVESGGGLVHAGGSLRLSCASSGSALFWNAMGWYRQAPGKERELVATITNSGGSTYYADSVKGRFTISRDNAKNTVYLQMNSLKPEDTAVYYCNADESAYWKLRHGLGSDSWGQGTQVTVSS,low polyreactivity
15,QVQLVESGGGLVQAGGSLRLSCAASGFIFRGNGMGWYRQAPGNERELVAAISKSGGRTYYADSVKGRFTISRDNAKNTVYLQMNSLKPEDTAVYYCNARRFWRGDYWGQGTQVTVSS,high polyreactivity
16,QVQLVESGGGLVQAGGSLRLSCAASGRIFYSYAMGWYRQAPGKERELVAAITESGGSTNYADSVKGRFTISRDNAKNTVYLQMNSLKPEDTEVYYCNARYKLTFNLYNYWGQGTQETVSS,low polyreactivity
17,QVQLVESGGGLVQAGGSLRLSCAASGSIFGFNAMGWYRQAPGKERELVAAISSGGITNYADSVKGRFTISRDNAKNTVSLQMNSLKPEVTAVYYCAAASESNWSFNYWGQGTQVTVSS,low polyreactivity
18,QVQLVESGGGLVQAGGSLRLSCAASGSIFVYNAMGWYRQAPRKETEMVAAITSTGRTYYADSVKGRFTISRDNAKNTVYLKMNSLKPEDTGVYYCAATYVWSTLQYKTWQKLTHYGYWGQGTQVTVSS,high polyreactivity
19,QVQLVESGGGLVQAGGSLRLSCAASGFIFHRYAMGWYRQAPGKERELVAAITGRGSSTYYADSVKGRFTISRDNAKNTVYLQMNSLKPEDTAVYYCNAYRYQVYDTGWFGYWGQGTQVTVSS,high polyreactivity
20,QVQLVESGGGLVQAGGSLRLSCAASGRIFGSYVMGWYRQAPGKERELVAAISFSGDTTYYADSVKGRFTISRDNAKNTVYLQMNSLKPEDTAVYYCAAEFPQGYYAFKYDYWGQGTQVTVSS,high polyreactivity
